The supplement of paper PMC9170038

Test system: MS2 coat protein
Assay: apparent KD of MS2 coat protein; designed switch direction (-1 OFF switch, 1 ON switch): -1; higher = weaker reporter binding
Procedure, shortened: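 RNA switches sharing common flanks were transcribed by stalled E. coli RNA polymerase on Illumina chips. A doubling series of SNAP-549-labelled MS2 coat protein, from 0.7 or 1.5 nM to 3 µM, was applied in Tris-HCl pH 7.5 buffer with KCl, MgCl2, BSA, DTT, tRNA and Tween-20. Each step lasted 0.8–1.5 h at the bottom of the series and 10–20 min at the top. Normalised cluster fluorescence was curve-fitted, giving apparent KD as the per-design median over clusters.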

[1] = Eterna round: R95, input ligand: microRNA oligo, concentration not stated
[2] = Eterna round: R95, input ligand: FMN 200 uM
[3] = Eterna round: R95, input ligand: none
[4] = input ligand: microRNA oligo, concentration not stated

## AAGAAACAUGAGGAUCACCCAUGUGAGGAUAUGAGCACGACCGUGAGGUCGAUAAGAAUCAGAAGGCACAUUAA [JL-ex1-4.55] (Eterna round: R97, puzzle: Exclusion 1)
Input ligand: FMN 200 uM
  apparent KD of MS2 coat protein: 137 nM
Input ligand: none
  apparent KD of MS2 coat protein: 41.8 nM

## UUUUAACAUGAGGAUCACCCAUGUGAGGAUAUCGAAAUUUAUAUUUAUAUUAAUUAAUCGAGAAGGCACAUUUU [JMF 84] (puzzle: Exclusion 1)
[1]
  apparent KD of MS2 coat protein: 150 nM

## CUGAGGUAGCGGUCCUAUGACAUGAGGAUCACCCAUGUACCUUGCUUUGAGCUUUAAGCUCGUCUUAUGAUUCUCGG [Mat - Sensor v3 - turn-off var 1 - JL Mod - D44] (puzzle: Sensor v3, turn-off variant 1)
[2]
  apparent KD of MS2 coat protein: 504 nM
[1]
  apparent KD of MS2 coat protein: 625 nM
[3]
  apparent KD of MS2 coat protein: 861 nM

## UGCCGUAGAGGAUAUACAUUGAAUAAGAUUCAUGUAGAACUACAUGAGGAUCACCCAUGUAGAAGGCUAUGGCU [JL-ex2-4.38 Eli mod] (Eterna round: R97, puzzle: Exclusion 2)
Input ligand: FMN 200 uM
  apparent KD of MS2 coat protein: 29.5 nM
Input ligand: none
  apparent KD of MS2 coat protein: 16.9 nM

## GCCUCACAUGAGGAUCACCCAUGUCAGGAUAUACCCAUCCAGCGAAAUAAACGCUGUAGUAGAAGGGACAUGCA [Anlaat] (Eterna round: R97, puzzle: Exclusion 1)
Input ligand: FMN 200 uM
  apparent KD of MS2 coat protein: 40.3 nM
Input ligand: none
  apparent KD of MS2 coat protein: 15.3 nM

## UAUAUAUAGUAAGGAUAUGUAUAAAUUUUAUAAACAGAAGGUACUGACAUGAGGAUCACCCAUGUUUUAGUGUGGGCAUGUAGA [JMF's solution 52] (Eterna round: R96, puzzle: Exclusion NG 1)
[4]
  apparent KD of MS2 coat protein: 74.6 nM

## GGAUAAAACUGAGGAUAUGAGGAGAGAGAGAGAUCAGAAGGCAGACAUGAGGAUCACCCAUGUGAGUUCUCGAUAAGAAACACG [Prohibition 56 - Jieux - Exclusion NG 1] (Eterna round: R96, puzzle: Exclusion NG 1)
Input ligand: FMN 200 uM
  apparent KD of MS2 coat protein: 58.9 nM
[4]
  apparent KD of MS2 coat protein: 30.7 nM
Input ligand: none
  apparent KD of MS2 coat protein: 38.3 nM

## UUGUUCCGUGUAGGAUAUUGGUCUCCCUCGGGCCGAGAAGGACAUGAGGAUCACCCAUGUAUGCUAUUAUCGCGCGUGGCGCAU [Design 92] (Eterna round: R96, puzzle: Exclusion NG 1)
Input ligand: FMN 200 uM
  apparent KD of MS2 coat protein: 209 nM
[4]
  apparent KD of MS2 coat protein: 48.5 nM
Input ligand: none
  apparent KD of MS2 coat protein: 58.9 nM

## CUUUUGUGAGGAUAUUAGUAGUAAAUGAAUAAAAUUAUUACUGAGAAGGUACAUGAGGAUCACCCAUGUUCCUU [Mat - Exclusion 4 - Eli Mod - D20] (Eterna round: R97, puzzle: Exclusion 4)
Input ligand: FMN 200 uM
  apparent KD of MS2 coat protein: 16.3 nM
Input ligand: none
  apparent KD of MS2 coat protein: 14.3 nM

## GUGUGCUGAGGAUAUACAUAGGAAUAGAAUAGAAUAGAAUGACAUGAGGAUCACCCAUGUAGAAGGCAGAGUGU [Excluse me!! 13 - Jieux - Exclusion 2] (puzzle: Exclusion 2)
[2]
  apparent KD of MS2 coat protein: 39.6 nM
[1]
  apparent KD of MS2 coat protein: 21.4 nM
[3]
  apparent KD of MS2 coat protein: 24.8 nM

## ACUCACGCAGGAUAUACAUGAGGAUCACCCAUGUUCAAAGGGCGCGGGAACAUCGUCUGUAGAAGGGCGAACAU [jl-ex3-4.62 ViennaUCT mod] (Eterna round: R97, puzzle: Exclusion 3)
Input ligand: FMN 200 uM
  apparent KD of MS2 coat protein: 40.4 nM
Input ligand: none
  apparent KD of MS2 coat protein: 29 nM

## UUGUUAUAUGUAGGAUAUGCGUAUUAUUAUUAUGCAGAAGGACAUGAGGAUCACCCAUGUAUGUUGUUGUUAUAUAUUAUAUAU [Title] (Eterna round: R96, puzzle: Exclusion NG 1)
[4]
  apparent KD of MS2 coat protein: 18.1 nM

## CAGUACUGAGGAUAUACAUGAGGAUCACCCAUGUGUCCUAGCUAGGAAACUAGCAUUAGUAGAAGGCAGUACUG [Fiskers Ex 3 828 mod 6] (Eterna round: R96, puzzle: Exclusion 3)
Input ligand: FMN 200 uM
  apparent KD of MS2 coat protein: 225 nM
[4]
  apparent KD of MS2 coat protein: 16.9 nM
Input ligand: none
  apparent KD of MS2 coat protein: 19.5 nM

## UGAUCUAGGCGAGGAUAUACAUGAGGAUCACCCAUGUAAACGUGACAUGGAAACAUGUCACGUGUGUAGAAGGCGCCUAGAUCU [MOD2 ENG2 3.54 by JL] (Eterna round: R96, puzzle: Exclusion NG 2)
Input ligand: FMN 200 uM
  apparent KD of MS2 coat protein: 15.7 nM
[4]
  apparent KD of MS2 coat protein: 10.8 nM
Input ligand: none
  apparent KD of MS2 coat protein: 13.2 nM

## AUUUUAAUAUAGGAUAUCGAAUUUAUUAUUUAACGAGAAGGAUGAACAUGAGGAUCACCCAUGUGGUAUCAUGG [JL-ex6-3.03] (puzzle: Exclusion 6)
[2]
  apparent KD of MS2 coat protein: 214 nM
[1]
  apparent KD of MS2 coat protein: 263 nM
[3]
  apparent KD of MS2 coat protein: 178 nM

## AACAAGCUUUAAAGAUCCCACAUGAGGAUCACCCAUGUGCUCGUCUUAUAACGUACUGUGACGAAAGUCACGGUACG [JL TOV1 3.25] (Eterna round: R97, puzzle: Sensor, turn-off variant 1)
Input ligand: FMN 200 uM
  apparent KD of MS2 coat protein: 27.7 nM
Input ligand: none
  apparent KD of MS2 coat protein: 37.4 nM

## UGUUGUUACGCAGGAUAUGUAUGAGGAUCACCCAUAAGAGUAUAUUUACCAUGAGGAUCACCCAUGUAGAAGGGCGGGUUAACA [pwkr exNG2 2xF5 1xFMN.10] (Eterna round: R96, puzzle: Exclusion NG 2)
Input ligand: FMN 200 uM
  apparent KD of MS2 coat protein: 224 nM
[4]
  apparent KD of MS2 coat protein: 109 nM
Input ligand: none
  apparent KD of MS2 coat protein: 144 nM

## GCUUGUGGGCAAGGAUAUCCUGCGCUGUUCUGGUUCGUGUCUGUCACAUGAGGAUCACCCAUGUGGGAGAAGGUGCCUUUGGUG [Design 64] (Eterna round: R96, puzzle: Exclusion NG 2)
Input ligand: FMN 200 uM
  apparent KD of MS2 coat protein: 13.4 nM
[4]
  apparent KD of MS2 coat protein: 10.9 nM
Input ligand: none
  apparent KD of MS2 coat protein: 14.9 nM

## GAUCCGUUAGGAUAUGCGGGUGUCACCAGAGUGAUAGCCUCGCAGAAGGAACAUGAGGAUCACCCAUGUAGCAA [Eternabot (L1) Solution 92] (Eterna round: R97, puzzle: Exclusion 4)
Input ligand: FMN 200 uM
  apparent KD of MS2 coat protein: 111 nM
Input ligand: none
  apparent KD of MS2 coat protein: 38.6 nM

## GGCCUUCCACGAGCUUUUUACAUGAGGAUCACCCAUGUGGUUUUUAGUCUUAUCCCGGGCCCGCUGUCGGGCCCGGG [-32.2, -52.8, A 13%] (Eterna round: R97, puzzle: Sensor, turn-off variant 1)
Input ligand: FMN 200 uM
  apparent KD of MS2 coat protein: 29.1 nM
Input ligand: none
  apparent KD of MS2 coat protein: 33 nM

## UGUAGUUCAGGAUAUGAUGUAUAAUACAUGAGGAUCACCCAUGUAGAUCCUGAAUUUACAUCAGAAGGGAAUAUUU [JL-ex5-4.58 Brourd mod] (Eterna round: R97, puzzle: Exclusion 5)
Input ligand: FMN 200 uM
  apparent KD of MS2 coat protein: 20.4 nM
Input ligand: none
  apparent KD of MS2 coat protein: 15.4 nM

## GAAUAGAGAGGAUAUGCGAAGUAGGUAGUAAGAUAUAUCUGACAUGAGGAUCACCCAUGUAGAAGGCUCAGAUC [EX2 #4] (Eterna round: R97, puzzle: Exclusion 2)
Input ligand: FMN 200 uM
  apparent KD of MS2 coat protein: 34.8 nM
Input ligand: none
  apparent KD of MS2 coat protein: 35.2 nM

## AGGCCACAUGAGGAUCACCCAUGUUAGGAUAUCGAGAGUACAACGAGCCGUCACUUCCCGAGAAGGGACAAGGG [Eternabot (Original) Solution 22] (Eterna round: R97, puzzle: Exclusion 1)
Input ligand: FMN 200 uM
  apparent KD of MS2 coat protein: 65.3 nM
Input ligand: none
  apparent KD of MS2 coat protein: 54.5 nM

## UGUAUUAGGUCAGGAUAUACAUGAGGAUCACCCAUGUACAUGGAGCGAGUACAGUAUCAUGCAAGGUAGAAGGGACAGUCGACG [success! :D] (Eterna round: R96, puzzle: Exclusion NG 2)
Input ligand: FMN 200 uM
  apparent KD of MS2 coat protein: 21.6 nM
[4]
  apparent KD of MS2 coat protein: 15.7 nM
Input ligand: none
  apparent KD of MS2 coat protein: 24.3 nM

## CCUGGGUAAGGAUAUUUGAUUCCCUCCGGUUAGGGAGGAUGGAAGAAGGUACAUGAGGAUCACCCAUGUGUGGA [Eternabot (L1) Solution 67] (Eterna round: R97, puzzle: Exclusion 4)
Input ligand: FMN 200 uM
  apparent KD of MS2 coat protein: 94.7 nM
Input ligand: none
  apparent KD of MS2 coat protein: 97.8 nM

## UGCAGACGAGGAUAUAGAUUUAAGUACAUGAGGAUCACCCAUGUACAUAUGUAUUUAGAUUUAGAAGGCGUCUGCU [E5/16-A4] (Eterna round: R97, puzzle: Exclusion 5)
Input ligand: FMN 200 uM
  apparent KD of MS2 coat protein: 28.5 nM
Input ligand: none
  apparent KD of MS2 coat protein: 29.8 nM

## CAUUGUUAUCGAGGAUAUCGUAUUGAGAUACUACGAGAAGGCGGAAUAAACAUGAGGAUCACCCAUGUGAGACGGAUGCUUGUG [Ex NG1 #34] (Eterna round: R96, puzzle: Exclusion NG 1)
Input ligand: FMN 200 uM
  apparent KD of MS2 coat protein: 34.1 nM
[4]
  apparent KD of MS2 coat protein: 16 nM
Input ligand: none
  apparent KD of MS2 coat protein: 28.3 nM

## AGGUAGUCAGGAUAUUAGGAGUAGCGGGAUAACGCUACGAGUGAGAAGGGACAUGAGGAUCACCCAUGUUUUGU [JR_Ex4_Sub068] (Eterna round: R97, puzzle: Exclusion 4)
Input ligand: FMN 200 uM
  apparent KD of MS2 coat protein: 24.3 nM
Input ligand: none
  apparent KD of MS2 coat protein: 23.1 nM

## UUGUUAUAUGUAGGAUAUGCAUAUUAUUAUUAUGCAGAAGGACAUGAGGAUCACCCAUGUAUAUUGUUAUUAUAUAUUAUAUAU [Title] (Eterna round: R96, puzzle: Exclusion NG 1)
[4]
  apparent KD of MS2 coat protein: 19 nM

## AAUAACAAGCCGAUCCUUAACAUGAGGAUCACCCAUGUGCUCGUCUUGUAAAGUACUAUCACGAAAGUGAUAGUACA (Eterna round: R97, puzzle: Sensor, turn-off variant 1)
Input ligand: FMN 200 uM
  apparent KD of MS2 coat protein: 25.1 nM
Input ligand: none
  apparent KD of MS2 coat protein: 22.7 nM

## CUGAGCAGACGGAGAUCCAACAUGAGGAUCACCCAUGUCUCAUAAGCUUUUUGUUCAUCUUAUUGUACCUUGGUGCU [JL ViennaUCT Edcesobi mod 4] (puzzle: Sensor v3, turn-off variant 1)
[2]
  apparent KD of MS2 coat protein: 149 nM
[1]
  apparent KD of MS2 coat protein: 24.6 nM
[3]
  apparent KD of MS2 coat protein: 252 nM

## CGUAAGCUAGGAUAUGCUUUGGGAAAGCAUUCCUUCGAUAAACUUGAGGAUCACCCAAGUAGAAGGAGCUUACG [salish99_ex2_r4_010] (Eterna round: R97, puzzle: Exclusion 2)
Input ligand: FMN 200 uM
  apparent KD of MS2 coat protein: 24.8 nM
Input ligand: none
  apparent KD of MS2 coat protein: 16.8 nM

## GCAUUGAGUGUGAGGAUAUGCUGGUCCUUGGAUCAGCAGAAGGCACAUGAGGAUCACCCAUGUGAAUACAAUGC [JL bmx4 3.13] (puzzle: Brourd's mod of Exclusion 4)
[1]
  apparent KD of MS2 coat protein: 18.9 nM

## ACUUACUGAGGAUAUACUUAGAUUUACAUGAGGAUCACCCAUGUUCCUCUAUGUAUAUAUGUAGAAGGCAGAAGUA [Mat - Exclusion 5 - JL Mod - D50] (Eterna round: R97, puzzle: Exclusion 5)
Input ligand: FMN 200 uM
  apparent KD of MS2 coat protein: 252 nM
Input ligand: none
  apparent KD of MS2 coat protein: 38 nM
